We go through two substances from article PMC9088798, “An Approach to Derive Functional Peptide Inhibitors of Transcription Factor Activity” (JACS Au, 2022).

Test [1] concerns the target cJun bZIP domain (UniProt P05412).
Test [2] shares this target. Put plainly: circular dichroism spectra; CD spectra at 20 °C; heterodimeric sample compared with the average of the component spectra; total peptide 10 μM, equimolar components.
For test [3] the target is unchanged. Put plainly: circular dichroism thermal denaturation; loss of CD signal at 222 nm with temperature; total peptide 10 μM, equimolar components.
For test [4] the target is unchanged. The test is described as follows: ITC; antagonist peptide injected into cJun; single-site binding model.
The target is the same in test [5]. This is another data set of the same source.
The target is the same in test [6]. The source holds these as a separate data set.

Sequence of cJun bZIP domain (P05412 252-315): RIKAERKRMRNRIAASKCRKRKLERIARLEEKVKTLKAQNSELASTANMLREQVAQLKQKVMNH

For the substance A-FosW (designed binder), the IC50 of reversal of the TRE DNA CD peak shift at ~281 nm (cJun 20 μM, TRE DNA 5 μM); blocks cJun binding to TRE DNA with cJun bZIP domain [1] worked out at 16 µM. This substance showed an increase in α-helical content over the average of the component spectra in the test with cJun bZIP domain [2] of 39%. In the test with cJun bZIP domain [3], the Tm of the heterodimer came to 69.9 °C and the ΔTm of the heterodimer against the average of the component denaturation profiles came out at 27.5 °C. Also, in the test with cJun bZIP domain [4], the dissociation constant (Kd) came out at 0.0883 µM, the dH was -36.5 kcal/mol and the stoichiometry N is 1.04. In addition, in the test with cJun bZIP domain [5], the TBS assay in E. coli: colony numbers relative to TRE-mDHFR only (removal of the cJun transcriptional block) stood at 60%. This substance showed an IC50 of restoration of the free TRE DNA band in EMSA (cJun bZIP 20 μM, TRE DNA 2 μM); blocks cJun binding to TRE DNA in the test with cJun bZIP domain [6] of 12.1 µM.

As to FosW (designed binder), the IC50 of reversal of the TRE DNA CD peak shift at ~281 nm; blocks cJun binding to TRE DNA with cJun bZIP domain [1] is 120 µM. For the same substance, the Tm of the heterodimer with cJun bZIP domain [3] was 54 °C.
